Assay results from patent US7597889.

Assays:
human FcγRI (human) [1] = biological target: human FcγRI (human) (UniProt P12314); assay: fluorescent staining of FcγRI transfectants, flow cytometry
human FcγRI (human) [2] = biological target: human FcγRI (human) (UniProt P12314); assay: rosetting of FcγRI-bearing B2KA cells by R2R2 RBC coated with Ab; coating concentration
FcγRIIa 131H/H (human) = FcγRIIa 131H/H (human) (UniProt P12318); assay: staining of 3T6+FcγRIIa 131H/H cells with complexed Ab (summary)
human FcγRI (human) [3] = biological target: human FcγRI (human) (UniProt P12314); assay: rosetting after centrifuging RBC coated with 1 µg/ml Fog-1 G1 together with B2KA cells

Chain of UniProt P12314 (P12314 16-374): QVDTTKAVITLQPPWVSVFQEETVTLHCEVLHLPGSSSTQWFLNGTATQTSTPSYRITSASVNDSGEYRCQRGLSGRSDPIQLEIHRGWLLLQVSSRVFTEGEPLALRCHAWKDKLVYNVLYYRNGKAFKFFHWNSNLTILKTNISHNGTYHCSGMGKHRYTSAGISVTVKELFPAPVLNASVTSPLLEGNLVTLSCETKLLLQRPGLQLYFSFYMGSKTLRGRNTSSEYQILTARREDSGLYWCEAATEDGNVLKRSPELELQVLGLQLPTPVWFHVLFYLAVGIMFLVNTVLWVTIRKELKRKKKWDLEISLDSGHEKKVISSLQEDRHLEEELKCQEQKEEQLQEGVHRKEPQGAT
Chain of UniProt P12318 (P12318 34-317): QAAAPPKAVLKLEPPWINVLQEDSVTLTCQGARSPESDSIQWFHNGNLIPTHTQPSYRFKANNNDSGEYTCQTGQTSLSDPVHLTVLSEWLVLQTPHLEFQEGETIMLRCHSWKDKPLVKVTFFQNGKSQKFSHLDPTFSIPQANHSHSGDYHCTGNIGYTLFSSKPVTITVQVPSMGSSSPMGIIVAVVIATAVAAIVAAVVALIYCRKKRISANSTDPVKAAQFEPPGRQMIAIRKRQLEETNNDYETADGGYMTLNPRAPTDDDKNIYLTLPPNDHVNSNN

Substance	fold reduction of binding against the parent subclass (human FcγRI (human) [1])	also measured
Fog-1 G1Δab (antibody)	> 10000 fold	
CAMPATH-1 G1Δc (antibody)	> 10000 fold	
Fog-1 G1Δac (antibody)	> 10000 fold	
CAMPATH-1 G4Δb (antibody)	> 10000 fold	
Fog-1 G4Δc (antibody)	> 10000 fold	
Fog-1 G1Δa (antibody)		EC50 (human FcγRI (human) [2]): 0.1 µg/mL
CAMPATH-1 G1Δab (antibody)	> 10000 fold	
CAMPATH-1 G1Δac (antibody)	> 10000 fold	
CAMPATH-1 G4Δc (antibody)	> 10000 fold	
Fog-1 G1Δb (antibody)	> 10000 fold	fold lower activity than IgG1 (FcγRIIa 131H/H (human)): 50 fold
Fog-1 G1Δc (antibody)	> 10000 fold	fold lower activity than IgG1 (FcγRIIa 131H/H (human)): 10 fold
Fog-1 G4Δb (antibody)	> 10000 fold	
Fog-1 G1 (antibody)		percent of B2KA cells with rosettes (human FcγRI (human) [3]): 95%; EC50 (human FcγRI (human) [2]): 0.1 µg/mL
CAMPATH-1 G1Δb (antibody)	> 10000 fold	
